Test results: patent publication US20190194284A1
Read-outs that look alike come from different tables or passages of the source.

What was measured:
Test in all cases: cell-based or functional assay
[1] = target: T1, type I interferon-α/β receptor (IFNAR), composed of the IFNAR1 and IFNAR2 subunits (human) (UniProt P17181)
T1 sequence (looked up) 1: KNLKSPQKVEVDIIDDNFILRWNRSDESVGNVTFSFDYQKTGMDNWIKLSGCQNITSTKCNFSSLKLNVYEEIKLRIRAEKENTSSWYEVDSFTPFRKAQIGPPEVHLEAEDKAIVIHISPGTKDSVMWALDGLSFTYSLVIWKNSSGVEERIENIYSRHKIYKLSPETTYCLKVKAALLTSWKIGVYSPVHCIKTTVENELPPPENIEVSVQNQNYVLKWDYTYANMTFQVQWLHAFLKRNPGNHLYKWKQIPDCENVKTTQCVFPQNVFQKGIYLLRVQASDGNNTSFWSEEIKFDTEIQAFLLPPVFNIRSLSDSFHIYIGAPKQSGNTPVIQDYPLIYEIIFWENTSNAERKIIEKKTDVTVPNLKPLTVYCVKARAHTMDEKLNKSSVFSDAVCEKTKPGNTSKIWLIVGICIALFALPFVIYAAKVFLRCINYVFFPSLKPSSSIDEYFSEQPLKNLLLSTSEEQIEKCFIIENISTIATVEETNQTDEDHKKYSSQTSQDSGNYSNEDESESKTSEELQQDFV
T1 sequence (looked up) 2: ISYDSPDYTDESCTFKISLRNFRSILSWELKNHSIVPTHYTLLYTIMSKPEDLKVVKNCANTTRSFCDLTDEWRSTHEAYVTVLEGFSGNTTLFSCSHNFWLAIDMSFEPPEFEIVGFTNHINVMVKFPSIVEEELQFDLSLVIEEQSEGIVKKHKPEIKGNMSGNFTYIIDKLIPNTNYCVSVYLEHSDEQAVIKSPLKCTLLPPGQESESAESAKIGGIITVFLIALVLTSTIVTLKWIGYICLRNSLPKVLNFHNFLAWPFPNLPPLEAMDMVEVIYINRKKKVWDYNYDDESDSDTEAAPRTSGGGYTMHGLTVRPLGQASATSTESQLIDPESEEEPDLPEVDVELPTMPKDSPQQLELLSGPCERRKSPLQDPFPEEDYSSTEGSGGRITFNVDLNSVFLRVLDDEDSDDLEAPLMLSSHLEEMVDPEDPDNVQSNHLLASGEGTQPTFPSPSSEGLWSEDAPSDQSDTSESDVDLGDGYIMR

human CD20 (human) = target: T2, human CD20 (human) (UniProt P11836)
T2 sequence (looked up): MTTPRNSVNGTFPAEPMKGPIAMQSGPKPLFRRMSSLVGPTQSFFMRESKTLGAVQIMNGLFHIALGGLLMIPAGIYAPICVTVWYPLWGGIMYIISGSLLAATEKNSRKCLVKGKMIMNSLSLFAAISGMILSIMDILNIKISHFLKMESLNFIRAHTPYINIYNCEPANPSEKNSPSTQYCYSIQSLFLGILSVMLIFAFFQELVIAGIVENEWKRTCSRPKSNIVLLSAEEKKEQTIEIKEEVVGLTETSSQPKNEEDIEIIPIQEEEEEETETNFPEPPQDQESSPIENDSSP

[2] = target: T1, type I interferon-α/β receptor (IFNAR), composed of the IFNAR1 and IFNAR2 subunits (human); remark: listed apart in the source

What does the source list for “wild type human IFN-β (from UniProt P01574 22-187) (ligand)”?
EC50 for pSTAT1 in CD19 negative cells of human PBMCs [1]: 0.592 ng/ml; EC50 for pSTAT1 in CD19 positive cells of human PBMCs [1]: 0.422 ng/ml

B1: huCD20 VHH-20*GGS-huIFNβ-6*His, wild type hIFNβ coupled to anti-huCD20 VHH (P-126) (protein)
chain: QVQLQESGGGLAQAGGSLRLSCAASGRTFSMGWFRQAPGKEREFVAAITYSGGSPYYASSVRGRFTISRDNAKNTVYLQMNSLKPEDTAVYYCAANPTYGSDWNAENWGQGTQVTVSSGGSGGSGGSGGSGGSGGSGGSGGSGGSGGSGGSGGSGGSGGSGGSGGSGGSGGSGGSGGSMSYNLLGFLQRSSNFQCQKLLWQLNGRLEYCLKDRMNFDIPEEIKQLQQFQKEDAALTIYEMLQNIFAIFRQDSSSTGWNETIVENLLANVYHQINHLKTVLEEKLEKEDFTRGKLMSSLHLKRYYGRILHYLKAKEYSHCAWTIVRVEILRNFYFINRLTGYLRNHHHHHH
Which results are given for B1?
EC50 for pSTAT1 in CD19 positive (CD20 positive B) cells of human PBMCs (human CD20 (human)): 97 ng/ml; Targeting effect (EC50 on CD19 negative cells divided by that on CD19 positive cells) (human CD20 (human)): 7.1 fold; targeting effect, anti-proliferative activity on Daudi (CD20 positive) versus Wish (CD20 negative) cells (human CD20 (human)): 24.3 fold; EC50 for pSTAT1 in CD19 negative cells of human PBMCs [2]: 687 ng/ml
